# The Human Domainome abundance scans (Beltran et al. 2025)
# ± gives the uncertainty stated by the source.
# Test: abundance fitness (aPCA) (normalised: wild type 0, dead -1); higher = more abundant; growth selection in yeast, the domain comes from the species named
# Details: Homo sapiens
row,Substance,abundance fitness
1,"Transcriptional activator Myb Y156T, P10242",-0.09 ± 0.072
2,"Transcriptional activator Myb E151W, P10242",-0.835 ± 0.078
3,"Transcriptional activator Myb I154K, P10242",0.008 ± 0.095
4,"Transcriptional activator Myb L199W, P10242",-0.167 ± 0.1
5,"Transcriptional activator Myb N183D, P10242",0.142 ± 0.18
6,"Transcriptional activator Myb E150M, P10242",-0.097 ± 0.086
7,"Transcriptional activator Myb K182R, P10242",0.068 ± 0.056
8,"Transcriptional activator Myb I169E, P10242",-0.641 ± 0.12
9,"Transcriptional activator Myb M189S, P10242",-0.303 ± 0.065
10,"Transcriptional activator Myb E151V, P10242",-0.466 ± 0.074
11,"Transcriptional activator Myb K143L, P10242",-0.221 ± 0.16
12,"Transcriptional activator Myb L199Q, P10242",-0.152 ± 0.12
13,"Transcriptional activator Myb A180N, P10242",-0.134 ± 0.33
14,"Transcriptional activator Myb T177Y, P10242",-0.558 ± 0.17
15,"Transcriptional activator Myb E201Q, P10242",-0.061 ± 0.14
16,"Transcriptional activator Myb N186C, P10242",-0.028 ± 0.089
17,"Transcriptional activator Myb I181N, P10242",-0.658 ± 0.35
18,"Transcriptional activator Myb T148S, P10242",-0.004 ± 0.034
19,"Transcriptional activator Myb V193E, P10242",-0.138 ± 0.079
20,"Transcriptional activator Myb K143W, P10242",-0.535 ± 0.076
21,"Transcriptional activator Myb V193T, P10242",-0.018 ± 0.11
22,"Transcriptional activator Myb T188M, P10242",0.035 ± 0.08

row,Substance,abundance fitness
1,"Transcriptional activator Myb N183C, P10242",-0.203 ± 0.12
2,"Transcriptional activator Myb Q200P, P10242",0.005 ± 0.1
3,"Transcriptional activator Myb S202W, P10242",-0.211 ± 0.083
4,"Transcriptional activator Myb S202I, P10242",-0.021 ± 0.19
5,"Transcriptional activator Myb E149L, P10242",0.009 ± 0.22
6,"Transcriptional activator Myb Q195V, P10242",0.043 ± 0.081
7,"Transcriptional activator Myb L173D, P10242",-0.958 ± 0.22
8,"Transcriptional activator Myb S187H, P10242",-0.011 ± 0.17
9,"Transcriptional activator Myb I155A, P10242",-0.503 ± 0.065
10,"Transcriptional activator Myb L199I, P10242",-0.056 ± 0.1
11,"Transcriptional activator Myb N183Q, P10242",-0.094 ± 0.13
12,"Transcriptional activator Myb T188P, P10242",-0.268 ± 0.099
13,"Transcriptional activator Myb W185K, P10242",-0.553 ± 0.11
14,"Transcriptional activator Myb E201V, P10242",-0.183 ± 0.078
15,"Transcriptional activator Myb A180C, P10242",-0.021 ± 0.12
16,"Transcriptional activator Myb T148M, P10242",-0.462 ± 0.052
17,"Transcriptional activator Myb W166A, P10242",-0.467 ± 0.097
18,"Transcriptional activator Myb I169W, P10242",-1.08 ± 0.18
19,"Transcriptional activator Myb I181L, P10242",-0.365 ± 0.094
20,"Transcriptional activator Myb Q195M, P10242",-0.199 ± 0.16
21,"Transcriptional activator Myb T145Q, P10242",-0.171 ± 0.15
22,"Transcriptional activator Myb K143S, P10242",-0.245 ± 0.11

row,Substance,abundance fitness
1,"Transcriptional activator Myb Y156C, P10242",-0.069 ± 0.076
2,"Transcriptional activator Myb I155C, P10242",-0.346 ± 0.095
3,"Transcriptional activator Myb E201M, P10242",-0.078 ± 0.24
4,"Transcriptional activator Myb E151M, P10242",-0.624 ± 0.12
5,"Transcriptional activator Myb P174C, P10242",-0.239 ± 0.15
6,"Transcriptional activator Myb T188V, P10242",-0.012 ± 0.044
7,"Transcriptional activator Myb G197K, P10242",-0.124 ± 0.12
8,"Transcriptional activator Myb Q195F, P10242",-0.244 ± 0.15
9,"Transcriptional activator Myb R191S, P10242",-0.052 ± 0.076
10,"Transcriptional activator Myb Y198H, P10242",-0.145 ± 0.2
11,"Transcriptional activator Myb E168V, P10242",-0.61 ± 0.077
12,"Transcriptional activator Myb K171A, P10242",-0.017 ± 0.093
13,"Transcriptional activator Myb A170N, P10242",-0.655 ± 0.28
14,"Transcriptional activator Myb Y198N, P10242",0.067 ± 0.11
15,"Transcriptional activator Myb Y198Q, P10242",-0.02 ± 0.1
16,"Transcriptional activator Myb G175P, P10242",-0.594 ± 0.11
17,"Transcriptional activator Myb G197N, P10242",0.083 ± 0.16
18,"Transcriptional activator Myb H184F, P10242",-0.488 ± 0.075
19,"Transcriptional activator Myb K144W, P10242",-0.201 ± 0.089
20,"Transcriptional activator Myb W166V, P10242",-0.615 ± 0.075
21,"Transcriptional activator Myb M189T, P10242",-0.181 ± 0.085
22,"Transcriptional activator Myb R153N, P10242",0.02 ± 0.13

row,Substance,abundance fitness
1,"Transcriptional activator Myb R153E, P10242",-0.144 ± 0.079
2,"Transcriptional activator Myb K182N, P10242",-0.177 ± 0.15
3,"Transcriptional activator Myb N186V, P10242",-0.017 ± 0.072
4,"Transcriptional activator Myb N183F, P10242",-0.176 ± 0.14
5,"Transcriptional activator Myb W166F, P10242",-0.474 ± 0.14
6,"Transcriptional activator Myb T148D, P10242",-0.348 ± 0.043
7,"Transcriptional activator Myb R153Q, P10242",-0.031 ± 0.092
8,"Transcriptional activator Myb K171W, P10242",-0.598 ± 0.091
9,"Transcriptional activator Myb P174F, P10242",-0.298 ± 0.17
10,"Transcriptional activator Myb K144G, P10242",-0.042 ± 0.059
11,"Transcriptional activator Myb W147T, P10242",-0.542 ± 0.044
12,"Transcriptional activator Myb W166P, P10242",-0.359 ± 0.15
13,"Transcriptional activator Myb T145E, P10242",0.055 ± 0.12
14,"Transcriptional activator Myb S202C, P10242",-0.108 ± 0.1
15,"Transcriptional activator Myb R176E, P10242",-0.677 ± 0.11
16,"Transcriptional activator Myb K182C, P10242",-0.167 ± 0.11
17,"Transcriptional activator Myb I155N, P10242",-0.645 ± 0.17
18,"Transcriptional activator Myb L172C, P10242",-0.268 ± 0.14
19,"Transcriptional activator Myb R190W, P10242",-0.075 ± 0.11
20,"Transcriptional activator Myb I155K, P10242",-0.736 ± 0.11
21,"Transcriptional activator Myb G197T, P10242",-0.15 ± 0.092
22,"Transcriptional activator Myb S203D, P10242",-0.079 ± 0.15

row,Substance,abundance fitness
1,"Transcriptional activator Myb W185P, P10242",-0.688 ± 0.15
2,"Transcriptional activator Myb E168M, P10242",-0.533 ± 0.16
3,"Transcriptional activator Myb Q200H, P10242",0.003 ± 0.13
4,"Transcriptional activator Myb L172M, P10242",-0.175 ± 0.09
5,"Transcriptional activator Myb I154V, P10242",-0.03 ± 0.05
6,"Transcriptional activator Myb T177Q, P10242",-0.183 ± 0.084
7,"Transcriptional activator Myb M189L, P10242",0.073 ± 0.083
8,"Transcriptional activator Myb K144Q, P10242",-0.015 ± 0.1
9,"Transcriptional activator Myb M189Y, P10242",-0.535 ± 0.15
10,"Transcriptional activator Myb D152W, P10242",-0.403 ± 0.098
11,"Transcriptional activator Myb K143F, P10242",-0.235 ± 0.18
12,"Transcriptional activator Myb N186E, P10242",0.037 ± 0.079
13,"Transcriptional activator Myb T148F, P10242",-0.726 ± 0.046
14,"Transcriptional activator Myb L173T, P10242",-0.28 ± 0.12
15,"Transcriptional activator Myb W147G, P10242",-0.699 ± 0.036
16,"Transcriptional activator Myb T145I, P10242",0.228 ± 0.14
17,"Transcriptional activator Myb N186F, P10242",-0.055 ± 0.13
18,"Transcriptional activator Myb E196I, P10242",-0.34 ± 0.12
19,"Transcriptional activator Myb G197W, P10242",-0.229 ± 0.086
20,"Transcriptional activator Myb A180W, P10242",-0.28 ± 0.11
